Test results as given in article doi:10.1101/2025.01.28.635353, “DyAb: sequence-based antibody design and property prediction in a low-data regime” (bioRxiv, 2025).

Target: T1, EGFR (Homo sapiens, isoform 1 (assumed), UniProt P00533)
T1 construct: EGFR, the target antigen injected in SPR
Assay: SPR; antibody captured on a Protein A chip, target antigen injected 5 min, dissociation 10 min at 30 µL/min; multi-cycle mode; 37 degC; HBS-EP+ (10 mM Hepes pH 7.4, 150 mM NaCl, 0.3 mM EDTA, 0.05% Surfactant P20); 1:1 Langmuir fit; absolute affinities of the leads are medians across all experimental rounds
Details: both partners purified

Kd	binding result	Binder
3 nM	–	anti-EGFR lead (antibody, V domains shown, the Fab of this antibody was crystallised and deposited as PDB 9MU1 (heavy chain); the Fab of this antibody was crystallised and deposited as PDB 9MU1 (light chain); The methods tell the production (Expi293, purified) only of the DyAb designs; The Fab for the crystal was made in CHO cells; also called aEGFR lead; starting point lead candidate) VH: EVKLQQSGDETMRPGASVRMSCKAYGYTFTDYSVHWIRQRPGQGLEWIGIIIPLIDTTRYNQKFKGKAVLTADTSSDTAYMELSRLTFEDSAVYYCARSYGSSGDDWFAYWGQGTLVTVSS VL: DTVLTQSPALSVSPGERVDISCRASESVSTLLHWYQQKPGQQPTLLISLASSLESGVPARFSGSGSGTDFTLTIDPVEADDTAIYYCQESWNEPYAFGAGTKLELK
–	binds	aEGFR-R1-1 (antibody, V domains shown, the Fab was crystallised and deposited as PDB 9MSW (heavy chain); as the heavy chain of m1 with four mutations across CDR-H1, CDR-H3 and the framework (Kabat numbering); the Fab was crystallised and deposited as PDB 9MSW (light chain); The Fab for the crystal was made in CHO cells; also called R1-1 design; DyAb design aEGFR-R1-1; source: Expi293, transiently expressed, purified from supernatant) VH: EVKLQQSGDETMRPGASVRMSCKAYGYTFTDYSMHWIRQRPGQGLEWIGIIIPLIDTTRYNQKFKGKATLTADTSSDTAYMELSRLTFEDSAVYYCARSYDPSGDDWFAYWGQGTLVTVSS VL: DTVLTQSPALSVSPGERVDISCRASESVSTLLHWYQQKPGQQPTLLISLASSLESGVPARFSGSGSGTDFTLTIDPVEADDTAIYYCQESWNEPYAFGAGTKLELK
